Values of other authors as cited in PMC4976356, “Structural insight into β-Clamp and its interaction with DNA Ligase in Helicobacter pylori” (Scientific Reports, 2016).

Tested on: Ecβ-clamp

B1: ligase from E. coli: E. coli DNA ligase examined for interaction with Ecβ-clamp (ref 10) (protein, UniProt P15042 1-671, looked up)
DNA ligase: MESIEQQLTELRTTLRHHEYLYHVMDAPEIPDAEYDRLMRELRELETKHPELITPDSPTQRVGAAPLAAFSQIRHEVPMLSLDNVFDEESFLAFNKRVQDRLKNNEKVTWCCELKLDGLAVSILYENGVLVSAATRGDGTTGEDITSNVRTIRAIPLKLHGENIPARLEVRGEVFLPQAGFEKINEDARRTGGKVFANPRNAAAGSLRQLDPRITAKRPLTFFCYGVGVLEGGELPDTHLGRLLQFKKWGLPVSDRVTLCESAEEVLAFYHKVEEDRPTLGFDIDGVVIKVNSLAQQEQLGFVARAPRWAVAFKFPAQEQMTFVRDVEFQVGRTGAITPVARLEPVHVAGVLVSNATLHNADEIERLGLRIGDKVVIRRAGDVIPQVVNVVLSERPEDTREVVFPTHCPVCGSDVERVEGEAVARCTGGLICGAQRKESLKHFVSRRAMDVDGMGDKIIDQLVEKEYVHTPADLFKLTAGKLTGLERMGPKSAQNVVNALEKAKETTFARFLYALGIREVGEATAAGLAAYFGTLEALEAASIEELQKVPDVGIVVASHVHNFFAEESNRNVISELLAEGVHWPAPIVINAEEIDSPFAGKTVVLTGSLSQMSRDDAKARLVELGAKVAGSVSKKTDLVIAGEAAGSKLAKAQELGIEVIDEAEMLRLLGS
Question: With B1 as the molecule, how does the “interaction with E. coli β-clamp (in words)” value read?
Answer: Its value is “interacts with its β-clamp”.
